Data from patent US20250345446A1 (Draupnir Bio ApS, priority 2022, published 2025).
Each block holds one molecule with its values, some of them ahead of it. *: point of attachment. Biotin = O=C1N[C@H]2[C@H](CS[C@H]2CCCCC(=O)*)N1

Key:
[1] = test system: HEK293 cells expressing full length sortilin receptor; test: Cellular uptake of AlexaFluor488-anti-DNP antibody; format: cell-based; conditions: for AUC score, target internalization: Table 7, AlexaFluor488-anti-DNP antibody (100 nM), 3 h, DNP warhead compounds; for cell associated FI signal, response to concentration series (in words): 3 h incubation, 1.9 nM to 2 μM, AlexaFluor488-anti-DNP antibody 100 nM
Source text: In this example, the small molecule degraders consist of a sortilin binder linked to warhead DNP to target anti-DNP antibodies (BF001 to BF016)
Cellular uptake of AlexaFluor488-anti-DNP antibody (Thermo Fisher) was investigated in HEK293 cells expressing full length sortilin receptor in a methodology analogous to example 3.

[2] = target: T1, soluble ectodomain of sortilin-6his (Homo sapiens, UniProt Q99523, V650M); test: MST binding to soluble ectodomain of sortilin-6his
T1 construct: the soluble ectodomain of sortilin-6his is measured by microscale thermophoresis (MST)

Sortilin-6His [3] = target: T2, Sortilin-6His (Homo sapiens (Human), UniProt Q99523 78-755); test: TR-FRET (HTRF) ternary complex streptavidin-d2 / biotin-peptide / sortilin-6His; AUC score: + <5000, ++ >5000
T2 construct: In MST it was labelled non-covalently with RED-tris-NTA; also called soluble ectodomain of sortilin-6his; fluorescent sortilin-6his

Sortilin-6His [4] = target: T2, Sortilin-6His; test: MST on labelled sortilin-6his ectodomain; KD score: ++ <100 nM, + 100-2000 nM

T2 sequence (Q99523 78-755 V650M limits assumed): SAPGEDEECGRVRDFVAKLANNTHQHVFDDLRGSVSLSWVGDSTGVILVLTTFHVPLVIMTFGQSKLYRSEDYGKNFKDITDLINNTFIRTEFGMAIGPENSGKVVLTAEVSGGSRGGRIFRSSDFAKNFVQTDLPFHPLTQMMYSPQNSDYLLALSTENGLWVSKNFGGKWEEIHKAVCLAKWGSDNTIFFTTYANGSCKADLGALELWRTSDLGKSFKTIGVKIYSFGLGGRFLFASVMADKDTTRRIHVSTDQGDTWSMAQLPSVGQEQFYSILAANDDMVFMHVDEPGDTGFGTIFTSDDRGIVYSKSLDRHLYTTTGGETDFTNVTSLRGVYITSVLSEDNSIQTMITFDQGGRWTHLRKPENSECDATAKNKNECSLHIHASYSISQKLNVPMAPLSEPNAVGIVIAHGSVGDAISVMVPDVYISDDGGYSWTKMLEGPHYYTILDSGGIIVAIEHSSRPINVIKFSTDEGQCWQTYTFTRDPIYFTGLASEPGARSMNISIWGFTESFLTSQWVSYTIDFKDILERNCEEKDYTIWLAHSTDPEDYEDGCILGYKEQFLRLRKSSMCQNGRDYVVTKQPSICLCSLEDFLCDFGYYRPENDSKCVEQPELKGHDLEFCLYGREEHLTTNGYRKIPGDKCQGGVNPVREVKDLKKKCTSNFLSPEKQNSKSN
T1 sequence (Q99523 with tags, fused parts or gaps V650M): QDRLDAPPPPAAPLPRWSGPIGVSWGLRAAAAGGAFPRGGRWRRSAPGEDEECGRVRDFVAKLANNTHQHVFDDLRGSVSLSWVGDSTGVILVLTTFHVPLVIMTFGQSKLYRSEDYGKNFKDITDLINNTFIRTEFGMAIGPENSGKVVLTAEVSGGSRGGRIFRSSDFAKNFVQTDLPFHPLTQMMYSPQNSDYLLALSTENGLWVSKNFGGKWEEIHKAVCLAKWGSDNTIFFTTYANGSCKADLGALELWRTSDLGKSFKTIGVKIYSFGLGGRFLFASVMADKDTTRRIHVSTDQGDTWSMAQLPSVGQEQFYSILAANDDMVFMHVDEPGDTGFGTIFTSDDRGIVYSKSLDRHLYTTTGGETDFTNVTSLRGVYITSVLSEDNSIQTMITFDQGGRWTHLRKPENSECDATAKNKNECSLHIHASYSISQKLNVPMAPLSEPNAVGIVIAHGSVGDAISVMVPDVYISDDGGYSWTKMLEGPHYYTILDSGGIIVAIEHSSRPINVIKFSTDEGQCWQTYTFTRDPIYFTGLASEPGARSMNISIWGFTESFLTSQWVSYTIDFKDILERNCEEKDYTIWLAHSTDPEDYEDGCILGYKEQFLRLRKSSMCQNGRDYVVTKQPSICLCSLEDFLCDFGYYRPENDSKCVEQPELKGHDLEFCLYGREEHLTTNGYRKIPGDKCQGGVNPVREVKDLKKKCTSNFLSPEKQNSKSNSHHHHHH

Molecule: CC(C)(C)CC[C@H](NC(=O)c1ccc(Oc2cccc(OCCOCCOCCOCCOCCOCCNc3ccc([N+](=O)[O-])cc3[N+](=O)[O-])c2)nc1)C(=O)O [BF004, (2S)-2-[[6-[3-[2-[2-[2-[2-[2-[2-(2,4-dinitroanilino)ethoxy]ethoxy]ethoxy]ethoxy]ethoxy]ethoxy]phenoxy]pyridine-3-carbonyl]amino]-5,5-dimethyl-hexanoic acid]
AUC score, target internalization [1]: + (AUC < 10.000)
Kd [2]: 1 to 10 nM

Molecule: CC(C)(C)CC[C@H](NC(=O)c1ccc(Oc2cccc(C(=O)NCCOCCOCCOCCOCCOCCOCCOCCNc3ccc([N+](=O)[O-])cc3[N+](=O)[O-])c2)nc1)C(=O)O [BF006, (2S)-2-[[6-[3-[2-[2-[2-[2-[2-[2-[2-[2-(2,4-dinitroanilino)ethoxy]ethoxy]ethoxy]ethoxy]ethoxy]ethoxy]ethoxy]ethylcarbamoyl]phenoxy]pyridine-3-carbonyl]amino]-5,5-dimethyl-hexanoic acid]
cell associated FI signal, response to concentration series (in words) [1]: bell-shaped response
AUC score, target internalization [1]: + (AUC < 10.000)
Kd [2]: 1 to 10 nM

Molecule: CC(C)(C)CC[C@H](NC(=O)c1ccc(Oc2cccc(C(=O)NCCOCCOCCOCCOCCOCCOCCNc3ccc([N+](=O)[O-])cc3[N+](=O)[O-])c2)nc1)C(=O)O [BF008, (2S)-2-[[6-[3-[2-[2-[2-[2-[2-[2-[2-(2,4-dinitroanilino)ethoxy]ethoxy]ethoxy]ethoxy]ethoxy]ethoxy]ethylcarbamoyl]phenoxy]pyridine-3-carbonyl]amino]-5,5-dimethyl-hexanoic acid]
AUC score, target internalization [1]: + (AUC < 10.000)
Kd [2]: 1 to 10 nM

Molecule: CC(C)(C)CC[C@H](NC(=O)c1ccc(Oc2cccc3c(C(=O)NCCCNC(=O)CCOCCOCCOCCOCCNc4ccc([N+](=O)[O-])cc4[N+](=O)[O-])cccc23)nc1)C(=O)O [BF010, (2S)-2-[[6-[[5-[3-[3-[2-[2-[2-[2-(2,4-dinitroanilino)ethoxy]ethoxy]ethoxy]ethoxy]propanoylamino]propylcarbamoyl]-1-naphthyl]oxy]pyridine-3-carbonyl]amino]-5,5-dimethyl-hexanoic acid]
AUC score, target internalization [1]: ++ (AUC > 10.000)
Kd [2]: 1 to 10 nM

Molecule: CC(C)(C)CC[C@H](NC(=O)c1ccc(Oc2cccc(C(=O)NCCOCCOCCOCCOCCOCCNc3ccc([N+](=O)[O-])cc3[N+](=O)[O-])c2)nc1)C(=O)O [BF011, (2S)-2-[[6-[3-[2-[2-[2-[2-[2-[2-(2,4-dinitroanilino)ethoxy]ethoxy]ethoxy]ethoxy]ethoxy]ethylcarbamoyl]phenoxy]pyridine-3-carbonyl]amino]-5,5-dimethyl-hexanoic acid]
cell associated FI signal, response to concentration series (in words) [1]: bell-shaped response
AUC score, target internalization [1]: + (AUC < 10.000)

Molecule: CC(C)(C)CC[C@H](NC(=O)c1ccc(Oc2cccc(OCCOCCOCCOCCOCCOCCOCCNc3ccc([N+](=O)[O-])cc3[N+](=O)[O-])c2)nc1)C(=O)O [BF014, (2S)-2-[[6-[3-[2-[2-[2-[2-[2-[2-[2-(2,4-dinitroanilino)ethoxy]ethoxy]ethoxy]ethoxy]ethoxy]ethoxy]ethoxy]phenoxy]pyridine-3-carbonyl]amino]-5,5-dimethyl-hexanoic acid]
AUC score, target internalization [1]: ++ (AUC > 10.000)
Kd [2]: 10 to 250 nM

AUC of TR-FRET (HTRF ratio vs compound concentration) for ternary complex formation (Sortilin-6His [3]): < 5000 auc
KD (Sortilin-6His [4]): < 100 nM
B1: Biotin-GGSGGGGSGRQLL-OH (peptide)
peptide: Biotin-GGSGGGGSGRQLL-OH
SMILES: CC(C)C[C@H](NC(=O)[C@H](CC(C)C)NC(=O)[C@H](CCC(N)=O)NC(=O)[C@H](CCCNC(=N)N)NC(=O)CNC(=O)[C@H](CO)NC(=O)CNC(=O)CNC(=O)CNC(=O)CNC(=O)[C@H](CO)NC(=O)CNC(=O)CNC(=O)CCCC[C@@H]1SC[C@@H]2NC(=O)N[C@@H]21)C(=O)O

AUC of TR-FRET (HTRF ratio vs compound concentration) for ternary complex formation (Sortilin-6His [3]): < 5000 auc
KD (Sortilin-6His [4]): < 100 nM
B2: Biotin-GGSGGGGSGFQLL-OH (peptide)
peptide: Biotin-GGSGGGGSGFQLL-OH
SMILES: CC(C)C[C@H](NC(=O)[C@H](CC(C)C)NC(=O)[C@H](CCC(N)=O)NC(=O)[C@H](Cc1ccccc1)NC(=O)CNC(=O)[C@H](CO)NC(=O)CNC(=O)CNC(=O)CNC(=O)CNC(=O)[C@H](CO)NC(=O)CNC(=O)CNC(=O)CCCC[C@@H]1SC[C@@H]2NC(=O)N[C@@H]21)C(=O)O

AUC of TR-FRET (HTRF ratio vs compound concentration) for ternary complex formation (Sortilin-6His [3]): > 5000 auc
KD (Sortilin-6His [4]): 100 to 2000 nM
B3: Biotin-GGSGGGGSGGGGSGGFQLL-OH (peptide)
peptide: Biotin-GGSGGGGSGGGGSGGFQLL-OH
SMILES: CC(C)C[C@H](NC(=O)[C@H](CC(C)C)NC(=O)[C@H](CCC(N)=O)NC(=O)[C@H](Cc1ccccc1)NC(=O)CNC(=O)CNC(=O)[C@H](CO)NC(=O)CNC(=O)CNC(=O)CNC(=O)CNC(=O)[C@H](CO)NC(=O)CNC(=O)CNC(=O)CNC(=O)CNC(=O)[C@H](CO)NC(=O)CNC(=O)CNC(=O)CCCC[C@@H]1SC[C@@H]2NC(=O)N[C@@H]21)C(=O)O

AUC of TR-FRET (HTRF ratio vs compound concentration) for ternary complex formation (Sortilin-6His [3]): > 5000 auc
KD (Sortilin-6His [4]): 100 to 2000 nM
B4: Biotin-GGSGGGGSGGGFQLL-OH (peptide)
peptide: Biotin-GGSGGGGSGGGFQLL-OH
SMILES: CC(C)C[C@H](NC(=O)[C@H](CC(C)C)NC(=O)[C@H](CCC(N)=O)NC(=O)[C@H](Cc1ccccc1)NC(=O)CNC(=O)CNC(=O)CNC(=O)[C@H](CO)NC(=O)CNC(=O)CNC(=O)CNC(=O)CNC(=O)[C@H](CO)NC(=O)CNC(=O)CNC(=O)CCCC[C@@H]1SC[C@@H]2NC(=O)N[C@@H]21)C(=O)O

AUC of TR-FRET (HTRF ratio vs compound concentration) for ternary complex formation (Sortilin-6His [3]): < 5000 auc
KD (Sortilin-6His [4]): 100 to 2000 nM
B5: Biotin-GGSGGGGSGGGRQLL-OH (peptide)
peptide: Biotin-GGSGGGGSGGGRQLL-OH
SMILES: CC(C)C[C@H](NC(=O)[C@H](CC(C)C)NC(=O)[C@H](CCC(N)=O)NC(=O)[C@H](CCCNC(=N)N)NC(=O)CNC(=O)CNC(=O)CNC(=O)[C@H](CO)NC(=O)CNC(=O)CNC(=O)CNC(=O)CNC(=O)[C@H](CO)NC(=O)CNC(=O)CNC(=O)CCCC[C@@H]1SC[C@@H]2NC(=O)N[C@@H]21)C(=O)O

AUC of TR-FRET (HTRF ratio vs compound concentration) for ternary complex formation (Sortilin-6His [3]): < 5000 auc
KD (Sortilin-6His [4]): < 100 nM
B6: Biotin-GGSGGGGSGGGGSRQLL-OH (peptide)
peptide: Biotin-GGSGGGGSGGGGSRQLL-OH
SMILES: CC(C)C[C@H](NC(=O)[C@H](CC(C)C)NC(=O)[C@H](CCC(N)=O)NC(=O)[C@H](CCCNC(=N)N)NC(=O)[C@H](CO)NC(=O)CNC(=O)CNC(=O)CNC(=O)CNC(=O)[C@H](CO)NC(=O)CNC(=O)CNC(=O)CNC(=O)CNC(=O)[C@H](CO)NC(=O)CNC(=O)CNC(=O)CCCC[C@@H]1SC[C@@H]2NC(=O)N[C@@H]21)C(=O)O

AUC of TR-FRET (HTRF ratio vs compound concentration) for ternary complex formation (Sortilin-6His [3]): > 5000 auc
KD (Sortilin-6His [4]): 100 to 2000 nM
B7: Biotin-GGSGGGGSGGGGSFQLL-OH (peptide)
peptide: Biotin-GGSGGGGSGGGGSFQLL-OH
SMILES: CC(C)C[C@H](NC(=O)[C@H](CC(C)C)NC(=O)[C@H](CCC(N)=O)NC(=O)[C@H](Cc1ccccc1)NC(=O)[C@H](CO)NC(=O)CNC(=O)CNC(=O)CNC(=O)CNC(=O)[C@H](CO)NC(=O)CNC(=O)CNC(=O)CNC(=O)CNC(=O)[C@H](CO)NC(=O)CNC(=O)CNC(=O)CCCC[C@@H]1SC[C@@H]2NC(=O)N[C@@H]21)C(=O)O
